Assay results: the RNAGym collection of RNA variant scans (doi:10.1073/pnas.2313332121)

B1: TPR t1 (parent)
chain: GACCAAUCUGCCCUCAGAGCUCGAGAACAUCUUCGGAUGCAGAGGAGGCAGGCUUCGGUGGCGCGAUAGCGCCAACGUCCUCAACCUCCAAUGCAUCCCACCACAUGAUGAUGCCUGAAGAGCCUUGGUUUUUUG

Variants of: B1
Test: polymerase ribozyme fitness, log enrichment relative to wild type (log ratio); higher = more active; in vitro selection for triplet polymerase activity
Procedure, shortened: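 PCR was used to build mutant libraries for each subunit of a heterodimeric triplet polymerase ribozyme, which were then transcribed. A single in vitro selection round, in triplicate, used a frozen incubation at −7 °C and recovered extended constructs by gel excision, streptavidin beads and RT-PCR. Fitness is the logarithm of genotype enrichment relative to wild-type enrichment, averaged over replicates with inverse-variance weights. The logarithm is base 2, and after Illumina sequencing only genotypes with ≥10 input reads and ≥1 read per output were kept.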

Variant | polymerase ribozyme fitness (log ratio)
G47U U55G U116G | -3.9
G48A U81C C102A A121C | -0.944
G48C G63C | -2.72
G48C G63A | -0.954
G48C C56G G71A C97A C104U U112G | -6.76
G48C C70U C124A | 0.758
G47U C85G A111C | -2.87
G48A C56G G93U | -2.28
G47C U116C | -2.31
G48A A75U C79G A90U A95C G120A U129G | -6.14
G47C U78A | -1.42
G47U A95U A108G C123A | -3.06
G47U C73U | -1.42
G48A U112C | 0.294
G48A U112A | 0.917
G48C G57U U96C | -0.888
G47U G135U | -2.02
G47U G71C | -2.44
G47U G71U | -2.23
G48A U54C U55A C94A A118U | -1.02
G48C C114A | -1.76
G47U C102U | -3.31
G47U G113C | -2.7
G47U G113U | -3.52

Variant | polymerase ribozyme fitness (log ratio)
G48A A103G G110U | -6.26
G48A G107A | -7.39
G47U C72G | -2.79
G47U C72A | -0.885
G48A G51A G71A C79A A84U G128A U129G | -6.49
G47U G58A G63U A90G G117C | -6.13
G47U U81A | -3.01
G48A C64U A95U G110C C115A | -5.72
G47C U81G | -3.84
G48A A95G U132A | -1.21
G48U A90U | -1.38
G48U C53U | -2.55
G48U C53G | -1.34
G47U C102U C124A U129C | -2.98
G48A U126G | -2.42
G47U G69A | -4.35
G47U A111U | -3.66
G47U A111G | -0.984
G47U A111C | -3.27
G48C A111C | -0.761
G48C C62U U92G | -3.68
G48A G63A C97A U112C | -4.92
G48U C62A G127C | -3.44
G47C U55G C72G U106A U129A G135C | -2.99

Variant | polymerase ribozyme fitness (log ratio)
G48A A95G U116G | -1.38
G48A C72U A119U | -0.826
G48C G71A G110A G120A | -3.66
G47U G120C G127C | -1.64
G48A G69C C123U | -0.587
G48A U87C C101A A105U | -3.9
G48A G71A C102A | -3.85
G48A G63C U132A | -1.12
G48A C72U G77C C82G A91C G110C G127C | -6.25
G48C G52C | -2.25
G48C C73G G93A | -1.8
G48A G61C A66U | -2.1
G48A U78A C98U | -1.75
G48A C123A G135A | 0.126
G47U C49G A50C G57U | -1.42
G47U G77U U106G | -3.7
G48U A84G | 0.021
G48C C72A C79G G127C | -3.9
G48A G57C C115G G122A | -1.91
G47U C53A A103C U112A G122A | -6.51
G48C G57A G63A G93U G127A | -4.97
G48U C62A A91U C123U U125A | -4.09
G48U A50U C89G U106A U116C C124U | -3.34
G48A C62A U96A | -2.62

Variant | polymerase ribozyme fitness (log ratio)
G47U G60A | -1.93
G48A C123A | 0.577
G47U U54C C76A U92C | -5.69
G48C G93A | -1.82
G48C G93C | -0.578
G48U C62G C104A U106C | -5.05
G48U C53G C62U C73A U132A | -0.636
G47U A66G A118G U130G | -4.13
G47U C53A | -1.95
G47U C53U | -1.6
G48C C73A U112A G120C | -0.954
G48A U92A | -3.51
G47U U78C A111U | -4.07
G47U U59C C97U G110C A121G U126C | -6.2
G48A G63U A84G G128U | -3.63
G47U C124G | 0.196
G47U C124A | -0.524
G48C C101U U109G | -5.98
G48C C62U A75G | -1.21
G48A G117A | -2.44
G48C U78G | -0.55
G47U G71A C104U | -2.44
G48U C73G | -1.73
G47U C53U C104U | -1.72

Variant | polymerase ribozyme fitness (log ratio)
G48U C72G | -1.7
G48A G63U A121U | 0.283
G47U G110U U134A | -2.33
G47U G127U | -2.57
G47U G127A | -2.68
G47U U55A C70A C94G | -4.15
G48U C49U C73G G120U | 0.0945
G47U U92A | -5.48
G48C G57U G69U U92C | -1.31
G48C G60U U106A G107C | -6.48
G48C C49G C82U C124A G127C U133C G135U | -0.601
G47U G51U | -4.87
G48C C53G C64G G65A U109G | -6.8
G48A C62A G69U | -5.25
G47U C56G G69C C76A A119G U129C | -7.91
G48C C49A U129A | -3.14
G48A C56A | -1.1
G48A C56A G113U | -4.64
G48C C56A C97A C104U U112G | -6.59
G48C C72U U78C C86A C101A C114U C124U | -4.1
G48A C49U C53A A111U | -3.28
G47U U59C C101U U125G U126C | -3.12
G47U C79U | -1.85
G47U G60A C86A C89U | -0.955

Variant | polymerase ribozyme fitness (log ratio)
G47U G71C U125G | -2.97
G48A C62A U81A | -3.27
G48C C53G | -0.405
G48C G61A A83U U87A G128U | -3.32
G48A G60U C115U | -0.887
G47U G57A G69U | -1.68
G47U G117A | -3.33
G48C G77A | -1.21
G48C G51U C73U C76A G77A A119G | -6.51
G48A C73U C82U G93U | -1.54
G48A G69C C79U U92G U116C G120C | -7.13
G48A C79A C97U | -2.68
G47U A111G G120A | -2.18
G48C G61U C124A | 1.51
G47U A66C C115U U130A G135A | -5.53
G48C C115A A121U | 0.474
G48A G57U A95C U112A C114A | -3.34
G48A G63U G113A | -2.17
G48A G52U C80G | -5.98
G47U U130G | -2.4
G48U C49G U96A | -1.45
G48U C56A G69U C89A C115A A118U | -1.82
G47U G77U C94A U116C A121C | -4.66
G48A G61A A103C C104U | -5.34

Variant | polymerase ribozyme fitness (log ratio)
G48A C49U C56A A100U | -2.11
G47U G71C C104A | -4.32
G48C G120A | -0.738
G48A G60U A90C C114A | -2.49
G47C U133G | -1.54
G47U U116G C124U | -2.14
G48A U54A | -0.741
G48A U130A | -1.78
G48C A103U G120A | -6.04
G48C U55G C79U A84C C85G G93U C124A | 0.322
G47U U55A C70U C94G | -4.62
G48U A91U C104A | -5.89
G48A C53G U55C G69A | -2.78
G48A G77U G135U | -1.78
G47U G63C | -2.32
G47U G63A | -2.11
G47U G63U | -2.33
G48C C53A C79G C99A C124A | -7.85
G48A A100U C101U G117A C123A | -3.72
G47U U55C C101G | -2.84
G48U A50G U92C A108G | -5.83
G48C G63A C101U | -0.648
G48C C76U C88U | -1.76
